Laboratory results published in paper PMC2187783.

Columns and labels:
[1] = target: RP97 chimeric class II beta chain (beta1 domain of DR, beta2 domain of DP) (human)
[2] = target: PR97 chimeric class II beta chain (beta1 domain of DP, beta2 domain of DR) (human)

Substance | Table II, DPa Percent: percentage of cells binding the mAb SG465 [1] [%] | Table II, DPa Percent: percentage of cells binding the mAb SG465 [2] [%] | Table II, DRa Percent: percentage of cells binding the mAb SG465 [1] [%] | Table II, DRa Percent: percentage of cells binding the mAb SG465 [2] [%]
HLA-DP alpha chain (from UniProt P20036 29-260) (natural protein) | 0 | 22 |  | 
HLA-DR alpha chain (from UniProt P01903 26-254) (natural protein) |  |  | 54 | 0
